Data as given in US20230183373A1 (MINERVA BIOTECHNOLOGIES, published 2023).

B2: PSMGFR minus 10 amino acids from the C-terminus (peptide)
peptide: GTINVHDVETQFNQYKTEAASRYNLTISDVSVSDV
notes: also called C-10; C-10 PSMGFR

Assays:
[1] = target: T1, PSMGFR peptide (Primary Sequence of the MUC1 Growth Factor Receptor); test: ELISA on immobilised PSMGFR (FIG. 2B)
T1 construct: Synthetic peptide; also called MUC1* peptide; MUC1* PSMGFR peptide
T1 peptide: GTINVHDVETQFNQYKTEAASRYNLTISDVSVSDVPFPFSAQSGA

[2] = target: T2, PSMGFR minus 10 amino acids from the N-terminus; test: selection screens (FIG. 3A-C cited)
T2 construct: also called N-10; N-10 PSMGFR
T2 peptide: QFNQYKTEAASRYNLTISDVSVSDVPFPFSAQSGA

dimeric NME1 = target: T3, dimeric NME1 (human, UniProt P15531 1-152, limits assumed); test: ELISA on immobilised C-10 peptide (FIG. 2D)
T3 construct: Used in dimer form; also called NM23-H1 dimers; dimeric NM23-H1

NME7-AB = target: T4, NME7-AB (human, UniProt Q9Y5B8 92-376, limits assumed); test: ELISA on immobilised C-10 peptide (FIG. 2A)
T4 construct: also called NM23-H7
T4 sequence: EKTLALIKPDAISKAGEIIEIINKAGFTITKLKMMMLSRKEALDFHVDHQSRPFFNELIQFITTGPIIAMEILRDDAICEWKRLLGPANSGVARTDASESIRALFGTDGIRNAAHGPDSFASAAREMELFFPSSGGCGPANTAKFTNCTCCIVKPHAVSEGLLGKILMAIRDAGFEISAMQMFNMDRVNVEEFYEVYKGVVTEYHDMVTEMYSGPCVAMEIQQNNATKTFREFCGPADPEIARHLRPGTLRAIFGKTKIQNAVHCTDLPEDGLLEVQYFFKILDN

[3] = target: T1, PSMGFR peptide (Primary Sequence of the …); test: ELISA on immobilised PSMGFR (FIG. 2C)
[4] = target: T1, PSMGFR peptide (Primary Sequence of the …); test: ELISA on immobilised PSMGFR, N-10 and C-10 (FIG. 22A)
[5] = target: B2; test: ELISA on immobilised N-10 and C-10 peptides (FIG. 2E)
[6] = target: T1, PSMGFR peptide (Primary Sequence of the …); test: ELISA on PSMGFR (FIG. 21A)
[7] = target: T1, PSMGFR peptide (Primary Sequence of the …); test: ELISA, surface coated with PSMGFR peptide (FIG. 5)

T3 sequence (P15531 whole entry): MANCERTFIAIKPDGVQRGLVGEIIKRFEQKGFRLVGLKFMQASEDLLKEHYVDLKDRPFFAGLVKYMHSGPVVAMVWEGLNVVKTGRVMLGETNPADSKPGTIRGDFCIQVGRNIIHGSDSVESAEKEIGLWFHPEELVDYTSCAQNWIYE

B1: mouse monoclonal antibody MN-C2 (antibody, V domains shown)
VH: EVQLEESGGGLVKPGGSLKLSCAASGFTFSGYAMSWVRQTPEKRLEWVATISSGGTYIYYPDSVKGRFTISRDNAKNTLYLQMSSLRSEDTAMYYCARLGGDNYYEYFDVWGAGTTVTVSS
VL: DIVITQSTASLGVSLGQRATISCRASKSVSTSGYSYMHWYQQRPGQPPKLLIYLASNLESGVPARFSGSGSGTDFTLNIHPVEEEDAATYYCQHSRELPFTFGGGTKLEIKR
notes: Mouse monoclonal IgG; the printed entries run a few residues into the constant regions
- binding result [1]: binds
- binding result [2]: binds

Binder: B2
- binding result (dimeric NME1): no binding
- binding result (NME7-AB): no binding

B3: mouse monoclonal antibody MN-E6 (antibody, V domains shown)
VH: EVKVVESGGDLVKPGGSLKLSCVVSGFTFSRYGMSWVRQTPGKRLEWVATISGGGTYIYYPDSVKGRFTISRDNAKNTLYLQMSSLKSEDTAMYHCTRDNYGRNYDYGMDYWGQGTSVTVSS
VL: QIVLTQSPAIMSASPGEEVTLTCSATSSVSYIHWFQQRPGTSPKLWIYSTSNLASGVPVRFSGSGYGTSYSLTISRMEAEDAATYYCQQRSSSPFTFGSGTKLEIK
notes: Mouse monoclonal IgG; the constant regions are not; also called parent mouse MN-E6 antibody
- binding result [3]: binds
- binding result [2]: binds

B4: mouse monoclonal antibody MN-C3 (antibody, V domains shown)
VH: QVQLQQSGPELVRPGVSVKISCKGSGYRFTDYAMNWVKQSHAKSLEWIGVISTFSGNTNFNQKFKGKATMTVDKSSSTAYMELARLTSEDSAMYYCARSDYYGPYFDYWGQGTTLTVSS
VL: DVLMTQTPLSLPVSLGDQASISCRSSQTIVHSNGNTYLEWYLQKPGQSPKLLIYKVSNRFSGVPDRFSGSGSGTDFTLKINRVEAEDLGVYYCFQGSHVPFTFGSGTKLEIK
notes: Mouse monoclonal IgG
- binding result [4]: binds
- binding result [5]: binds

B5: hu MN-E6 scFv-Fc-Y407R-hingeless (Fc fusion)
chain: AAQPAEVQLVESGGGLVKPGGSLRLSCAASGFTFSRYGMSWVRQAPGKRLEWVSTISGGGTYIYYPDSVKGRFTISRDNAKNTLYLQMNSLRAEDTAVYYCTRDNYGRNYDYGMDYWGQGTLVTVSSGGGGSGGGGSGGGGSEIVLTQSPATLSLSPGERATLTCSATSSVSYIHWYQQRPGQSPRLLIYSTSNLASGIPARFSGSGSGSDYTLTISSLEPEDFAVYYCQQRSSSPFTFGSGTKVEIKAPELLGGPSVFLFPPKPKDTLMISRTPEVTCVVVDVSHEDPEVKFNWYVDGVEVHNAKTKPREEQYNSTYRVVSVLTVLHQDWLNGKEYKCKVSNKALPAPIEKTISKAKGQPREPQVYTLPPSREEMTKNQVSLTCLVKGFYPSDIAVEWESNGQPENNYKTTPPVLDSDGSFFLRSKLTVDKSRWQQGNVFSCSVMHEALHNHYTQKSLSLSPGK
notes: The construct derives from the pSECTag2 E6 scFv-Fc, so it carries the leader and AAQPA before the scFv; also called MN-E6 scFv-Fc with deleted hinge and Y407R
- binding result [6]: binds

B6: humanized MN-C2 scFv (scFv, V domains shown)
VH: EVQLVESGGGLVKPGGSLRLSCAASGFTFSGYAMSWVRQAPGKGLEWVSTISSGGTYIYYPDSVKGRFTISRDNAKNSLYLQMNSLRAEDTAVYYCARLGGDNYYEYFDVWGKGTTVTVSS
VL: DIVLTQSPASLAVSPGQRATITCRASKSVSTSGYSYMHWYQQKPGQPPKLLIYLASNLESGVPARFSGSGSGTDFTLTINPVEANDTANYYCQHSRELPFTFGGGTKVEIKR
notes: also called huMN-C2 scFv; hu MN-C2 scFv; not shown: Linker; which one was te; 6xHis tag (detected with Anti-Penta-His)
- EC50 [7]: ~333 nM
